The source of these data is paper PMC6713497.

The target in assay [1] is qNOR from Neisseria meningitidis (NmqNOR), wild type (Neisseria meningitidis). In words: cryo-EM structure; cryo-EM dataset of wild-type NmqNOR, 9 Å reconstruction (fig. S1); conditions not given.
Assay [2] has as its target AxqNOR Val495Ala-BRIL (Alcaligenes xylosoxidans). In words: cryo-EM structure; single-particle cryo-EM of detergent-solubilised qNOR-BRIL (50 mM tris, 150 mM NaCl, 0.05% DTM; wild type pH 7.0 at 3 mg/ml, Val495Ala pH 7.5 at 5 mg/ml), C2 symmetry imposed.

The substance “qNOR from Neisseria meningitidis (NmqNOR), wild type (enzyme)” came in with a stoichiometry N in assay [1] of 2.

The substance AxqNOR Val495Ala-BRIL (enzyme) returned a stoichiometry N in assay [2] of 2.

A word on the stoichiometry N: it is the number of molecules, sites or subunits per partner or assembly.
